Values quoted from earlier work in patent US20100069292A1, “INSULIN WITH A BASAL RELEASE PROFILE” (Biodel, Inc., priority 2008, published 2010).

Tests used:
[1] = patients, compared with NPH insulin
[2] = in vivo

insulin glargine
risk of low blood glucose (hypoglycemia) [1]: much lower risk of low blood glucose (hypoglycemia) than the patients who took NPH insulin | duration of blood glucose lowering after injection [2]: up to 24 hours
